Source: patent US20160215065A1 (Genentech, published 2016)
Values joined by “and” are separate entries in the source; they are usually repeats but may differ in a detail not shown here. Equal values may be shown once. Read-outs that look alike come from different tables or passages of the source.

B1: anti-NSP4 antibody 2-4 (antibody, human IgG1, V domains shown)
VH: EVQLVESGGGLVQPGGSLRLSCAASGFTFSDYWISWVRQAPGKGLEWVAGISPNNGDTYYADSVKGRFTISADTSKNTAYLQMNSLRAEDTAVYYCAREDDDERDYAMDYWGQGTLVTVSS
VL: DIQMTQSPSSLSASVGDRVTITCRASQDVSTAVAWYQQKPGKAPKLLIYSASFLYSGVPSRFSGSGSGTDFTLTISSLQPEDFATYYCQQSYTTPPTFGQGTKVEIKR
notes: also called clone 2-4
B2: anti-NSP4 antibody 5-3 (antibody, V domains shown)
VH: EVQLVESGGGLVQPGGSLRLSCAASGFTFSGNDISWVRQAPGKGLEWVAGISPYGGSTYYADSVKGRFTISADTSKNTAYLQMNSLRAEDTAVYYCARRVSFYSRHAGMDYWGQGTLVTVSS
VL: B1 VL
B3: anti-NSP4 antibody 4-4 (antibody, human IgG1, V domains shown)
VH: EVQLVESGGGLVQPGGSLRLSCAASGFTFTSTSIHWVRQAPGKGLEWVAEITPHGGYTNYADSVKGRFTISADTSKNTAYLQMNSLRAEDTAVYYCARGRTKWGWLYGMDYWGQGTLVTVSS
VL: B1 VL
notes: also called clone 4-4
B4: anti-NSP4 antibody 5-1 (antibody, human IgG1, V domains shown)
VH: EVQLVESGGGLVQPGGSLRLSCAASGFTFSGSGIHWVRQAPGKGLEWVAWISPTGGNTYYADSVKGRFTISADTSKNTAYLQMNSLRAEDTAVYYCAKSLFHNVAFDYWGQGTLVTVSS
VL: B1 VL
B5: anti-NSP4 antibody 4-2 (antibody, human IgG1, V domains shown)
VH: EVQLVESGGGLVQPGGSLRLSCAASGFTFSGSDISWVRQAPGKGLEWVGEIYPSNGDTYYADSVKGRFTISADTSKNTAYLQMNSLRAEDTAVYYCARSVRPSWWAMDYWGQGTLVTVSS
VL: B1 VL
notes: also called clone 4-2
B6: anti-NSP4 antibody 3-2 (antibody, human IgG1, V domains shown)
VH: EVQLVESGGGLVQPGGSLRLSCAASGFTFSDYSISWVRQAPGKGLEWVGEINPAGGATYYADSVKGRFTISADTSKNTAYLQMNSLRAEDTAVYYCARGDFPFWSDAYYVMDYWGQGTLVTVSS
VL: B1 VL
notes: also called Ab 3-2; clone 3-2
B7: anti-NSP4 antibody 2-2 (antibody, human IgG1, V domains shown)
VH: EVQLVESGGGLVQPGGSLRLSCAASGFTFSSTAISWVRQAPGKGLEWVGEIYPSDGYTDYADSVKGRFTISADTSKNTAYLQMNSLRAEDTAVYYCARVKWAVSSLGVMDYWGQGTLVTVSS
VL: B1 VL
notes: also called clone 2-2
B8: anti-NSP4 antibody 5-2 (antibody, V domains shown)
VH: EVQLVESGGGLVQPGGSLRLSCAASGFTFSNTYISWVRQAPGKGLEWVGFIYPANGATYYADSVKGRFTISADTSKNTAYLQMNSLRAEDTAVYYCARRYRLSFDYWGQGTLVTVSS
VL: B1 VL
B9: anti-NSP4 antibody 1-1 (antibody, human IgG1, V domains shown)
VH: EVQLVESGGGLVQPGGSLRLSCAASGFTFSGSWISWVRQAPGKGLEWVGTISPYNGSTYYADSVKGRFTISADTSKNTAYLQMNSLRAEDTAVYYCARVLRPKVYASVMDYWGQGTLVTVSS
VL: B1 VL
B10: anti-NSP4 antibody 1-5 (antibody, human IgG1, V domains shown)
VH: EVQLVESGGGLVQPGGSLRLSCAASGFTFTNNSISWVRQAPGKGLEWVGAISPNNGSTYYADSVKGRFTISADTSKNTAYLQMNSLRAEDTAVYYCARNAWHYSWVGVMDYWGQGTLVTVSS
VL: B1 VL
B11: anti-NSP4 antibody 1-3 (antibody, human IgG1, V domains shown)
VH: EVQLVESGGGLVQPGGSLRLSCAASGFTFSDNWISWVRQAPGKGLEWVGYIYPASGYTDYADSVKGRFTISADTSKNTAYLQMNSLRAEDTAVYYCASDSPHAYWYAMDYWGQGTLVTVSS
VL: B1 VL
B12: anti-NSP4 antibody 2-5 (antibody, human IgG1, V domains shown)
VH: EVQLVESGGGLVQPGGSLRLSCAASGFTFTGYGISWVRQAPGKGLEWVGWIYPASGATYYADSVKGRFTISADTSKNTAYLQMNSLRAEDTAVYYCARHRAFDWYPYYIGSSVMDYWGQGTLVTVSS
VL: B1 VL
notes: also called clone 2-5
B13: anti-NSP4 antibody 1-2 (antibody, human IgG1, V domains shown)
VH: EVQLVESGGGLVQPGGSLRLSCAASGFTFSGYSIHWVRQAPGKGLEWVAGISPTNGYTDYADSVKGRFTISADTSKNTAYLQMNSLRAEDTAVYYCARLVFYRGVMDYWGQGTLVTVSS
VL: B1 VL
B14: anti-NSP4 antibody 2-1 (antibody, human IgG1, V domains shown)
VH: EVQLVESGGGLVQPGGSLRLSCAASGFTFTDYSIHWVRQAPGKGLEWVAEIYPYSGDTYYADSVKGRFTISADTSKNTAYLQMNSLRAEDTAVYYCARDGDGWFDWAMDYWGQGTLVTVSS
VL: B1 VL
notes: also called clone 2-1
B15: anti-NSP4 antibody 2-3 (antibody, human IgG1, V domains shown)
VH: EVQLVESGGGLVQPGGSLRLSCAASGFTFTDSDISWVRQAPGKGLEWVAWISPSDGATDYADSVKGRFTISADTSKNTAYLQMNSLRAEDTAVYYCAHEASDDDYAIDYWGQGTLVTVSS
VL: B1 VL
notes: also called clone 2-3
B16: anti-NSP4 antibody 5-4 (antibody, V domains shown)
VH: EVQLVESGGGLVQPGGSLRLSCAASGFTFTSYAISWVRQAPGKGLEWVAGISPSNGYTNYADSVKGRFTISADTSKNTAYLQMNSLRAEDTAVYYCARAGRWTHSDIDYWGQGTLVTVSS
VL: B1 VL
B17: anti-NSP4 antibody 3-5 (antibody, human IgG1, V domains shown)
VH: EVQLVESGGGLVQPGGSLRLSCAASGFTFSDNDISWVRQAPGKGLEWVGSISPDNGDTNYADSVKGRFTISADTSKNTAYLQMNSLRAEDTAVYYCARDDVPAVFTSAMDYWGQGTLVTVSS
VL: B1 VL
notes: also called Ab 3-5; Ab35
B18: human active NSP4 (hA) (protein)
chain: IIGGHEVTPHSRPYMASVRFGGQHHCGGFLLRARWVVSAAHCFSHRDLRTGLVVLGAHVLSTAEPTQQVFGIDALTTHPDYHPMTHANDICLLRLNGSAVLGPAVGLLRPPGRRARPPTAGTRCRVAGWGFVSDFEELPPGLMEAKVRVLDPDVCNSSWKGHLTLTMLCTRSGDSHRRGFCSADSGGPLVCRNRAHGLVSFSGLWCGDPKTPDVYTQVSAFVAWIWDVVRRSSPQPGPLPGTTRPPGEAA
B19: human wild-type NSP4 produced in CHO cells, activated (protein)
chain: B18 chain

Experiments:
[1] = tested on: T1, internally quenched fluorogenic peptide substrate with P1-arginine
T1 sequence: IRRSSYSFKK

[2] = tested on: T2, internally quenched fluorogenic peptide substrate with P1-methylarginine
T2 sequence: IRRSSYSFKK

human active NSP4 (hA) = molecular target: T3, human active NSP4 (hA) (human, UniProt Q6UWY2 34-283); experiment: BLI affinity class in summary table
T3 construct: range 34-283; For crystals partly deglycosylated with Endo F3 (FFR-cmk complex) or fully glycosylated (VLK-cmk complex); also called hA-NSP4; hA (NSP4)
T3 sequence (looked up): B18 chain

mouse active NSP4 (mA) = molecular target: T4, mouse active NSP4 (mA) (mouse, UniProt Q14B24 36-284); experiment: BLI affinity class in summary table
T4 construct: mature; also called mA-NSP4; mA (NSP4)
T4 sequence (looked up): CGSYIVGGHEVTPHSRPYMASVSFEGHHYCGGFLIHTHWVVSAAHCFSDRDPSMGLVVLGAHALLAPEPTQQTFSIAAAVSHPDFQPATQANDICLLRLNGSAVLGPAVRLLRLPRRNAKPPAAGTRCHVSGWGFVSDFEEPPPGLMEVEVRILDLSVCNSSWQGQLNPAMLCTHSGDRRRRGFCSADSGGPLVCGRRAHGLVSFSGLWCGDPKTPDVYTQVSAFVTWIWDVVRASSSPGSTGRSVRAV

mouse zymogen NSP4 (mZ) = molecular target: T5, mouse zymogen NSP4 (mZ) (mouse, UniProt Q14B24 36-284); experiment: BLI affinity class in summary table
T5 construct: mature; Expressed in CHO cells; also called mZ-NSP4; mZ (NSP4); not shown: N-terminal FLAG tag cleavable by enteropeptidase (cleavage after Asp-Asp-Asp-Asp-Lys)
T5 sequence (looked up): T4 sequence (looked up)

[3] = molecular target: human zymogen NSP4 (hZ) (human) (UniProt Q6UWY2); experiment: BLI affinity class in summary table
[4] = molecular target: human zymogen NSP4 (hZ) (human) (UniProt Q6UWY2); experiment: competition phage ELISA (phage IC50); soluble hZ-NSP4 against plate-coated NSP4
[5] = molecular target: T6, mouse active NSP4 (mA) (mouse), Q14B24; experiment: competition phage ELISA (phage IC50); soluble mA-NSP4 against plate-coated NSP4; conditions: remark: other sources report otherwise
T6 chain: T4 sequence (looked up)

[6] = molecular target: T6, mouse active NSP4 (mA) (mouse), Q14B24; experiment: BLI affinity class in summary table; conditions: remark: other sources report otherwise
[7] = molecular target: T7, mouse zymogen NSP4 (mZ) (mouse), Q14B24; experiment: BLI affinity class in summary table; conditions: remark: other sources report otherwise
T7 chain: T4 sequence (looked up)

[8] = molecular target: T8, internally quenched fluorogenic peptide substrate with P1-arginine
T8 chain: IRRSSYSFKK

[9] = molecular target: T9, internally quenched fluorogenic peptide substrate with P1-methylarginine
T9 chain: IRRSSYSFKK

| Molecule | Kd (human active NSP4 (hA)) | Kd (mouse zymogen NSP4 (mZ)) | Kd [3] | IC50 [4] | other results |
| --- | --- | --- | --- | --- | --- |
| Factor Xa |  |  |  |  | cleavage of fluorogenic peptide with P1-arginine [1]: factor Xa, with a canonical S1 pocket could only cleave unmodified P1-Arg substrate; cleavage of fluorogenic peptide with P1-methylarginine [2]: factor Xa, with a canonical S1 pocket could only cleave unmodified P1-Arg substrate |
| B1 | < 50 nM | < 50 nM | < 50 nM | 2.3 nM | Kd (mouse active NSP4 (mA)): < 50 nM |
| B2 |  |  |  |  | IC50 [5]: 319 nM; Kd [6]: < 50 nM |
| B3 | < 50 nM |  | > 50 nM and < 1000 nM |  |  |
| B4 |  |  |  |  | IC50 [5]: 9.93 nM; Kd [6]: < 50 nM |
| B5 | < 50 nM |  | > 50 nM and < 1000 nM |  |  |
| B6 |  | < 50 nM |  |  | Kd (mouse active NSP4 (mA)): < 50 nM |
| B7 |  | < 50 nM | < 50 nM | 10.4 nM |  |
| B8 |  |  |  |  | IC50 [5]: 25 nM; Kd [7]: > 50 nM and < 1000 nM; Kd [6]: < 50 nM |
| B9 |  |  | > 50 nM and < 1000 nM | 155 nM |  |
| B10 |  |  | > 50 nM and < 1000 nM | 114 nM |  |
| B11 |  |  | > 50 nM and < 1000 nM | 52 nM |  |
| B12 |  | < 50 nM | < 50 nM | 22 nM |  |
| B13 |  |  | < 50 nM | 22.1 nM |  |
| B14 | < 50 nM | < 50 nM | < 50 nM | 7.62 nM | Kd (mouse active NSP4 (mA)): < 50 nM |
| B15 | < 50 nM | < 50 nM | < 50 nM | 3.07 nM | Kd (mouse active NSP4 (mA)): < 50 nM |
| B16 |  |  |  |  | IC50 [5]: 60.5 nM; Kd [6]: < 50 nM |
| B17 | < 50 nM | < 50 nM | < 50 nM |  | Kd (mouse active NSP4 (mA)): < 50 nM |
| B18 |  |  |  |  | kcat/KM of fluorogenic peptide cleavage [8]: WT (BEVS) kcat/KM=1.1×10^4±2.1×10^3 M^-1 s^-1; cleavage of fluorogenic peptide with P1-methylarginine [9]: NSP4 could indeed cleave after methylarginine |
| B19 |  |  |  |  | kcat/KM of fluorogenic peptide cleavage [8]: WT (CHO) kcat/KM=7.5×10^3 ±1.1×10^3 M^-1s^-1 |
